Measured values from article PMC4344312.

B1: human glucagon like peptide-1 receptor (hGLP-1R): N63, 82, 115L (protein)
parent chain: MAGAPGPLRLALLLLGMVGRAGPRPQGATVSLWETVQKWREYRRQCQRSLTEDPPPATDLFCNRTFDEYACWPDGEPGSFVNVSCPWYLPWASSVPQGHVYRFCTAEGLWLQKDNSSLPWRDLSECEESKRGERSSPEEQLLFLYIIYTVGYALSFSALVIASAILLGFRHLHCTRNYIHLNLFASFILRALSVFIKDAALKWMYSTAAQQHQWDGLLSYQDSLSCRLVFLLMQYCVAANYYWLLVEGVYLYTLLAFSVLSEQWIFRLYVSIGWGVPLLFVVPWGIVKYLYEDEGCWTRNSNMNYWLIIRLPILFAIGVNFLIFVRVICIVVSKLKANLMCKTDIKCRLAKSTLTLIPLLGTHEVIFAFVMDEHARGTLRFIKLFTELSFTSFQGLMVAILYCFVNNEVQLEFRKSWERWRLEHLHIQRDSSMKPLKCPTSSLSSGATAGSSMYTATCQASCS
B2: human glucagon like peptide-1 receptor (hGLP-1R): tunicamycin (protein)
parent chain: B1 parent chain

What was measured:
[1] = total lysate immunoblot, anti-GFP; conditions: glycan lost; control: SP-VSVG WT
[2] = cell surface ELISA, anti-hGLP-1R, unpermeabilised cells; conditions: glycan lost; control: SP-VSVG WT, untreated
[3] = confocal immunofluorescence, GFP and surface anti-hGLP-1R; conditions: glycan lost; control: SP-VSVG WT, untreated

Protein | expression_or_secretion [1] | localisation_or_trafficking, percent_of_wt [2] | localisation_or_trafficking [3]
B1 | no change | abolishes | abolishes
B2 | – | abolishes | abolishes
